From patent US20200123227A1, “INTERFERON PRODRUG FOR THE TREATMENT OF CANCER” (The Board of Regents of the University of Texas System, published 2020) come the findings set out here.

Assay [1] concerns the target cell surface IFNAR1/IFNAR2 heterodimer (RAW-Lucia ISG cells) (Mus musculus (Mouse)) (UniProt P33896).
In another assay the target is human R2-SUB (human) (UniProt P01563).
In another assay the target is IFNa4-Fc (human). Nature of the assay: cell-based or functional assay.

On to “R2-IFNa4-Fc (from UniProt P07351) (Fc fusion)”, for which, in assay [1], the IFN activity, luciferase reporter assay in RAW-Lucia ISG cells was more than 125 fold.

As for rmMMP-9 (from UniProt P41245) (enzyme), the cleavage by rmMMP-9 at 37 C for 0, 0.5, 2 or 6 hours, digests separated on a stain-free gel in the assay with human R2-SUB (human) turned out to be 100%.

Regarding “R1-IFNa4-Fc (from UniProt P07351) (Fc fusion)”, the IFN activity, luciferase reporter assay in RAW-Lucia ISG cells in assay [1] is less than 125 fold.

B1: Mouse IFNAR1-ECD (receptor)
chain: ENLKPPENIDVYIIDDNYTLKWSSHGESMGSVTFSAEYRTKDEAKWLKVPECQHTTTTKCEFSLLDTNVYIKTQFRVRAEEGNSTSSWNEVDPFIPFYTAHMSPPEVRLEAEDKAILVHISPPGQDGNMWALEKPSFSYTIRIWQKSSSDKKTINSTYYVEKIPELLPETTYCLEVKAIHPSLKKHSNYSTVQCISTTVANKMPVPGNLQVDAQGKSYVLKWDYIASADVLFRAQWLPGYSKSSSGSRSDKWKPIPTCANVQTTHCVFSQDTVYTGTFFLHVQASEGNHTSFWSEEKFIDSQKHILPPPPVITVTAMSDTLLVYVNCQDSTCDGLNYEIIFWENTSNTKISMEKDGPEFTLKNLQPLTVYCVQARVLFRALLNKTSNFSEKLCEKTRPGSFST
On to B1, for which the “IFN activity, luciferase reporter assay in RAW-Lucia ISG cells” value with IFNa4-Fc is not below 125 fold.

B2: Mouse IFNAR2-ECD (receptor)
chain: SLETITPSAFDGYPDEPCTINITIRNSRLILSWELENKSGPPANYTLWYTVMSKDENLTKVKNCSDTTKSSCDVTDKWLEGMESYVVAIVIVHRGDLTVCRCSDYIVPANAPLEPPEFEIVGFTDHINVTMEFPPVTSKIIQEKMKTTPFVIKEQIGDSVRKKHEPKVNNVTGNFTFVLRDLLPKTNYCVSLYFDDDPAIKSPLKCIVLQPGQESGLSESA
With B2, the “IFN activity, luciferase reporter assay in RAW-Lucia ISG cells” value with IFNa4-Fc was not below 125 fold.
